This assay concerns the target VAPB-MSP domain, MSP(1–125) (human) (UniProt O95292). In words: NMR titration; 1H-15N HSQC of 15N-labelled VAPB protein (50 uM) with unlabelled NS5B or Eph protein added at different molar ratios (increment 0.5 for C-linker and Eph); 10 mM phosphate buffer pH 6.8, 25 C, 800 MHz; CSD tracings fitted with a one binding site model for residue-specific Kd.
Sequence of UniProt O95292 (O95292 1-125): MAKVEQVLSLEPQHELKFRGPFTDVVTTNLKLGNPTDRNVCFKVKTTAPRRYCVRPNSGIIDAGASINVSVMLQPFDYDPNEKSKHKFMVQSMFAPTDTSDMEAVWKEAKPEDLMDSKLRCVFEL

A word on the Kd: it is the equilibrium constant for the complex coming apart. In the case of NS5B C-linker peptide (531–570), the dissociation constant Kd was 8.8 µM, the residue-specific Kd (MSP residue 53C) is 1.4 µM, the residue-specific Kd (MSP residue 79D) stood at 13.6 µM and the residue-specific Kd (MSP residue 82E) worked out at 12.8 µM. For the same substance, the residue-specific Kd (MSP residue 90V) was 9 µM, the residue-specific Kd (MSP residue 116D) worked out at 5.7 µM, the residue-specific Kd (MSP residue 118K) was 2.9 µM and the residue-specific Kd (MSP residue 119L) amounted to 16 µM.

The values above are taken from PMC4718513.
